{"source": "patent US5543264", "key": {"[1]": {"molecular_target": "purified recombinant Ad2 proteinase (rEP) (human adenovirus type 2)"}, "[2]": {"molecular_target": "(Leu-Arg-Gly-Gly-NH)2-rhodamine"}, "[3]": {"molecular_target": "purified recombinant Ad2 proteinase (rEP) (human adenovirus type 2)", "remark": "listed apart in the source"}}}
{"molecule": "polylysine", "values": [{"measurement": "stimulation of the rate of substrate hydrolysis by rEP with pVIc peptide", "setting": "[1]", "result": "< 1", "unit": "fold"}]}
{"molecule": "polyaspartic acid", "values": [{"measurement": "stimulation of the rate of substrate hydrolysis by rEP with pVIc peptide", "setting": "[1]", "result": 5, "unit": "fold"}]}
{"molecule": "polyglutamic acid", "values": [{"measurement": "stimulation of the rate of substrate hydrolysis by rEP with pVIc peptide", "setting": "[1]", "result": 8.9, "unit": "fold"}]}
{"molecule": "purified recombinant Ad2 proteinase (rEP) (enzyme)", "values": [{"measurement": "rate of substrate hydrolysis, fluorescence assay (pmol substrate min^-1)", "setting": "[2]", "result": 25.6}]}
{"molecule": "GVQSLKRRRCF", "note": "[Ad2 pVI-c peptide cofactor (11-amino acid carboxy terminus of pVI)]", "values": [{"measurement": "activation of rEP, rate of hydrolysis of (Leu-Arg-Gly-Gly-NH)2-rhodamine", "setting": "[3]", "result": 2.76, "unit": "pmol/min"}]}
